Reference: paper PMC8584381, “A Small Step, a Giant Leap: Somatic Hypermutation of a Single Amino Acid Leads to Anti-La Autoreactivity” (International Journal of Molecular Sciences, 2021)
Where a chain is given by its changes, count along the chain named. Numbers in names are those of the source.

What was measured:
[1] = target: T1, native human La protein of HeLa total cell extract (Homo sapiens (HeLa, endogenous), UniProt P05455); assay: co-IP; HeLa total extract (50 nM Tris/HCl pH 8.0, 150 mM NaCl, 1% IGEPAL CA-630) mixed with 2 µg purified ab and Protein G MicroBeads, on ice 30 min; La detected by blot with anti-La mab 5B9; settings: one partner purified
T1 construct: La protein (La/SS-B), human, endogenous in HeLa cells; also called native La protein; source: endogenous, HeLa total extract

[2] = target: T2, recombinant human La protein (Homo sapiens, UniProt P05455); assay: far-Western, overlay or dot blot; SDS-PAGE/immunoblotting under denaturing conditions: 2 µg rh-La or TCM-La on nitrocellulose, IgG4 ab constructs at 1.5 µg/mL in Blocking Solution, detected with anti-human IgG4-HRP; settings: both partners purified
T2 construct: La protein (La/SS-B, Sjögren's syndrome associated antigen B), human; It calls wildtype La an undefined mixture of oxidized and reduced protein; also called rh-La; wildtype La protein; source: bacteria lysates, purified (Ni-NTA)
T2 sequence (P05455 whole entry): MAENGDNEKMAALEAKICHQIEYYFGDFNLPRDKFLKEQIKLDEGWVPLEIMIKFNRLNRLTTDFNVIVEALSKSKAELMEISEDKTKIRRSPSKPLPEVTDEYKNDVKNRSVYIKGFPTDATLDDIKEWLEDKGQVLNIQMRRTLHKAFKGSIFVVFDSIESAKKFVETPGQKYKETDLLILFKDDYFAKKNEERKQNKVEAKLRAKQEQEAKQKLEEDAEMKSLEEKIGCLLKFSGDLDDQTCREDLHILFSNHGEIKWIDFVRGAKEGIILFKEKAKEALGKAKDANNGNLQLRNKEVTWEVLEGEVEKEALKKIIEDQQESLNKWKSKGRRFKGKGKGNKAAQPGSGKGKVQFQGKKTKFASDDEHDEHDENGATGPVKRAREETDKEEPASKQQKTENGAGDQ

T1 sequence (P05455 whole entry): as above

B1: murine 312B-IgG4 (scFv of the mature 312B VH and VL fused to human IgG4 Fc) (Fc fusion, mouse)
VH: QVKLQESGAELMKPGSSVKFSCKAAGYTFTDYWIEWLKQRPGHGLEWIGEILPGSVSIKYNEKFKGKATFTADTSSNTAYMQLSSLTSEDSAVYYCARSRSIYDGYFYYWGQGTTLTVSS
VL: DIVMTQSTASLSASVGETVTITCRASENIYTYLAWYQQKQGKSPQLLVYNAKTLAEGVPSRFSGSGSGTQFSLRINSLQPEDFGSYYCQHHYGTPYTFGGGTKLEIK
notes: flexible linker of three G4S motifs; VH-VL orientation; N-terminal murine Ig kappa leader for secretion; also called mature ab; source: permanent 3T3 production cell line, purified from cell culture supernatant (protein A); not shown: Fc (human IgG4, CH2 and CH3), C-terminal, kept
**Q.** Which results are given for B1?
**A.** binding result [1]: binds; binding result [2]: binds

B2: mutated germline 312B-IgG4 with an aspartate to tyrosine mutation in the CDR3 region of the VH domain (Fc fusion, mouse)
VH: QVQLQQSGAELMKPGASVKLSCKATGYTFTGYWIEWVKQRPGHGLEWIGEILPGSGSTNYNEKFKGKATFTADTSSNTAYMQLSSLTTEDSAIYYCARSRSIYDGYFYYWGQGTTLTVSS
VL: B1 VL with V3Q, T8P, T31S, R74K
notes: as the germline VH of m6 with the aspartate in CDR3 replaced by tyrosine; flexible linker of three G4S motifs; as the germline VL of m6; VH-VL orientation; N-terminal murine Ig kappa leader for secretion; also called gl312B-D > Y; source: permanent 3T3 production cell line, purified from cell culture supernatant (protein A); not shown: Fc (human IgG4, CH2 and CH3), C-terminal, kept
**Q.** Does B2 bind [1]?
**A.** binds

**Q.** Does B2 bind [2]?
**A.** binds
